Assay [1] has as its target T1, human PD-L1 protein (ACRO, PD1-H5258) (human, UniProt Q9NZQ7 19-238).
T1 construct: Bought protein; also called Human PDL1-Fc
The experiment in a line: Carterra HC30M chip, antibody captured via anti-DYKDDDDK, PD-L1 as analyte. How it is done:
(§1) The anti-[…] antibody was bound to the HC30M chip via amino coupling, then 2 μg/mL of humanized PD-L1 single-domain antibody was captured. […] Kinetic constants were obtained by fitting with Carteria software.

The target in assay [2] is T2, monkey PD-L1 protein (Kactus Biosystems, PDL-CM210) (monkey).
T2 construct: Bought protein; also called Monkey PDL1-Fc
The assay is described as above. How it is done: as §1

Assay [3] concerns the target T3, mouse PD-L1 protein (ACRO, PD1-M5251) (mouse, UniProt Q9EP73 19-238).
T3 construct: Bought protein; also called Mouse PDL1-Fc
The assay is described as above. The method, then: as §1

The target of assay [4] is T4, human PD-L1 on CHO-huPDL1 cells (human, UniProt Q9NZQ7 19-290).
T4 construct: whole, on cells; also called CHO-hPDL1
The assay is described as follows: flow cytometry competition on CHO-huPDL1 cells, competitor human PD-1-hFc 1.25 ug/mL. The method, then:
(§2) CHO-huPDL1, CHO-mPDL1, and CHO-cynoPDL1 cells were respectively taken, washed with PBS, and resuspended with 1% BSA. Then 1×10⁵ cells per well were added to a 96-well V-bottom plate. […] After washing with PBS, PE anti-human Fc (Biolegend, 410708) was added and incubated on ice for 30 min. After washing with PBS, a flow cytometer was used for detection. IC₅₀ was fitted with experimental data by GraphPad Prism.

For assay [5], the target named is T5, monkey PD-L1 (Cyno-PD-L1) on cells (monkey (cyno)).
T5 construct: whole, on cells; also called CHO-cynoPDL1; 293F-cyno PD-L1 cells
The experiment in a line: flow cytometry competition on CHO-cynoPDL1 cells, competitor monkey PD-1-hFc 1.25 ug/mL. How it is done: as §2

Assay [6] concerns the target T1, human PD-L1 protein (ACRO, PD1-H5258). The assay is described as follows: Carterra HC30M chip, nanobody captured via anti-DYKDDDDK, PD-L1 as analyte. The text has this:
(§3) Kinetic constants were obtained by fitting with Carteria software.

Assay [7] addresses T2, monkey PD-L1 protein (Kactus …). Described as above.
From the text: as §3

Assay [8] has as its target T3, mouse PD-L1 protein (ACRO, PD1-M5251). The assay is described as above.
From the text: as §3

Assay [9] addresses T6, mouse PD-L1 on CHO-mPDL1 cells (mouse, UniProt Q9EP73 19-290).
T6 construct: whole, on cells
The assay is described as follows: flow cytometry competition on CHO-mPDL1 cells, competitor mouse PD-1-hFc 1.25 ug/mL. The method, then:
as §2

Assay [10] deals with T5, monkey PD-L1 (Cyno-PD-L1) on cells. The assay is described as follows: flow cytometry on 293F-cyno PD-L1 cells. The text has this:
(§4) After washing with PBS, a flow cytometer was used for detection.
(In general: A flow cytometer gives signals particle by particle.)

Assay [11] addresses T7, human PD-L1 on GS-C2 cells (cells overexpressing human PD-L1, GenScript, M00613) (human, UniProt Q9NZQ7 19-290).
T7 construct: whole, on cells; also called human PD-L1 cells
The experiment in a line: flow cytometry competition on GS-C2 cells, competitor human PD-1-mFc 1.25 ug/mL.
From the text: as §4

The target of assay [12] is T7, human PD-L1 on GS-C2 cells (cells …). The assay is described as follows: flow cytometry on GS-C2 cells.
From the text: as §4

For assay [13] the target is unchanged. The assay is described as follows: cell-based or functional assay.
Assay [14] addresses T1, human PD-L1 protein (ACRO, PD1-H5258). The assay is described as follows: Carterra HC30M chip, antibody captured via anti-DYKDDDDK, PD-L1 as analyte. The method, then: (§5) The anti-[…] antibody was bound to the HC30M chip via amino coupling, then […] of humanized PD-L1 single-domain antibody was captured. After the baseline was stabilized, gradient diluted human PD-L1 protein (ACRO, PD1-H5258) and monkey PD-L1 protein (Kactus Biosystems, PDL-CM210) (starting from 100 nM, gradient dilution) were flowed over the chip from low to high concentrations, with a binding time of 8 minutes and a dissociation time of 20 minutes. Kinetic constants were obtained by fitting with Carteria software.
This is another data set of the same source.

The target of assay [15] is T2, monkey PD-L1 protein (Kactus …). The description is as above. How it is done:
as §5
The source holds these as a separate data set.

For assay [16], the target named is T7, human PD-L1 on GS-C2 cells (cells …). The experiment in a line: flow cytometry on GS-C2 cells. The method, then:
Then PE-labeled goat anti-Flag fluorescent secondary antibody was added, and incubated on ice for 30 min. After washing with PBS, a flow cytometer was used for detection. EC₅₀ was fitted with the experimental data by GraphPad Prism.
The source holds these as a separate data set.

Assay [17] has the same target. The experiment in a line: cell-based or functional assay. The source holds these as a separate data set.
The target is the same in assay [18]. The experiment in a line: flow cytometry competition on GS-C2 cells, competitor human PD-1-mFc 1.25 ug/mL. The text has this:
(§6) After washing with PBS, a flow cytometer was used for detection. IC₅₀ was fitted with experimental data by GraphPad Prism.
The source holds these as a separate data set.

Assay [19] concerns the target T1, human PD-L1 protein (ACRO, PD1-H5258). The assay is described as follows: SPR (Carterra LSA), nanobody on NiHC200M chip via His-Tag, PD-L1 as analyte. How it is done:
The measurement was conducted using a capture kinetics process. The test antibody was immobilized on the surface of the NiHC200M chip via His-Tag. After several rounds of blank buffer injection and stabilizing the detection baseline, human PD-L1 protein was injected as the analyte. Each round of injection consisted of 2 minutes of baseline, 8 minutes of binding, and 20 minutes of dissociation. After subtracting the reference point and zero concentration signal (Double Reference) from the original measurement data, the binding curve was fitted by Carterra LSA Kinetics software and the kinetic parameters were calculated.

Assay [20] deals with T5, monkey PD-L1 (Cyno-PD-L1) on cells. The assay is described as follows: flow cytometry competition on 293F-cyno PD-L1 cells, competitor monkey PD-1-hFc 1.25 ug/mL.
From the text: as §6

Positions count from the first letter of the chain named. Like-named read-outs stand apart in the source and are kept apart here.

Here are results for ten molecules from patent US20260201058A1 (SICHUAN HUIYU PHARMACEUTICAL, published 2026).

The term Kd denotes the concentration at which binding is half-saturated. By IC50 is commonly meant the concentration needed to halve the response being measured. For orientation: EC50 means the concentration that produces a half-maximal response.

T1 sequence (Q9NZQ7 19-238): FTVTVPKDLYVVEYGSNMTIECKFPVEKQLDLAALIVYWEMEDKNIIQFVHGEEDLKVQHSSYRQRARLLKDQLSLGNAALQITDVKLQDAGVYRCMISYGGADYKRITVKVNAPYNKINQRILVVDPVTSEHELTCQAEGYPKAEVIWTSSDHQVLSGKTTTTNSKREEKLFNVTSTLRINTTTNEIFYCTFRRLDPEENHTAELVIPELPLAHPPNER
T7 sequence (Q9NZQ7 19-290, one chain of several): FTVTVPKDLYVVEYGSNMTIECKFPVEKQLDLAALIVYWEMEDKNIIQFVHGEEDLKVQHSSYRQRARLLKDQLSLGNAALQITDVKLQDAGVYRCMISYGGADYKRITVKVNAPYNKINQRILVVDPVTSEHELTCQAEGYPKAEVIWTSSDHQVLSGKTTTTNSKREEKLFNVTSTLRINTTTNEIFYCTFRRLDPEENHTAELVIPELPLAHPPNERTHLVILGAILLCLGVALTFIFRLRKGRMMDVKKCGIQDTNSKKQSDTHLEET
T3 sequence (Q9EP73 19-238): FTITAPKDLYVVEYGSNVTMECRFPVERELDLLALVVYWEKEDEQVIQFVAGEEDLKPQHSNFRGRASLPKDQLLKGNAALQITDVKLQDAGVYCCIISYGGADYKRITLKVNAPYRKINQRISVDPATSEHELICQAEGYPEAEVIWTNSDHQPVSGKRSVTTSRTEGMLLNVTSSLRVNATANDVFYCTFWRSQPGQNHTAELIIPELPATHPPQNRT
T6 sequence (Q9EP73 19-290): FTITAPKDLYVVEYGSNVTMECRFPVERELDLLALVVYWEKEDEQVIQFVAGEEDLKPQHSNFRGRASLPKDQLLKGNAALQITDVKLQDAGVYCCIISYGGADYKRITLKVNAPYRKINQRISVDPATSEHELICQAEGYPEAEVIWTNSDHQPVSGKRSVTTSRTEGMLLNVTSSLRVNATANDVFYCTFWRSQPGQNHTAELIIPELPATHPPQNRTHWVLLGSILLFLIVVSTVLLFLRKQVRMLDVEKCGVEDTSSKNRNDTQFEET
T4 sequence (Q9NZQ7 19-290): as the sequence (Q9NZQ7 19-290, one chain of several) above

B1: 4A7 hu-16 (Fc fusion)
chain: EVQLLESGGGLVQPGGSLRLSCAASGRTFSSYVMGWFRQAPGKEREFVSAISRAGSTYSADSVKGRFTISRDNSKNTLYLQMNSLRAEDTAVYYCAAGSSPTAIFGKSGMDYWGQGTQVTVSSGGGGSGGGGSDKTHTCPPCPAPEAAGAPSVFLFPPKPKDTLMISRTPEVTCVVVDVSHEDPEVKFNWYVDGVEVHNAKTKPREEQYNSTYRVVSVLTVLHQDWLNGKEYKCAVSNKALPAPIEKTISKAKGQPREPQVYTLPPSRDELTKNQVSLTCLVKGFYPSDIAVEWESNGQPENNYKTTPPVLDSDGSFFLYSKLTVDKSRWQQGNVFSCSVMHEALHNHYTQKSLSLSP
notes: Humanized VHH-Fc antibody
With B1, the Kd amounted to 45.1 nM in assay [1], 75.3 nM in [2] and 9.82 nM in assay [3].

B2: 4A7 nanobody (VHH)
VHH: EVQLVESGGGLVQAGDSLRLGCAASGRTFSTNVMGWFRQAPGKEREFVSAISRAGSTYSADSVKGRFTISRDNAENTVYLQMNSLKPEDTAVYYCAAGSSPTAIFGKSGMDYWGKGTLVTVSS
notes: Prokaryotically expressed VHH; also called anti-PD-L1 nanobody 4A7
In the case of B2, the figures for the IC50 in assay [4], in assay [5] and in assay [9] were 1.35 nM, 3.55 nM and 1.83 nM, respectively. The Kd in assay [6] worked out at 147 nM; in [7], 221 nM; in [8], 99.1 nM.

B3: 7B11 (Fc fusion)
chain: EVQLVESGGGLVQAGGSLRLSCAASGGTFLTYGMGWFRQAPGKEREFVAAINWSGSMTNYADSVKGRSTISRDNARNTVYLQMISLKPEDTAVYYCAAKTGAVAYIQKNEYDYWGQGTQVTVSSGGGGSGGGGSDKTHTCPPCPAPEAAGAPSVFLFPPKPKDTLMISRTPEVTCVVVDVSHEDPEVKFNWYVDGVEVHNAKTKPREEQYNSTYRVVSVLTVLHQDWLNGKEYKCAVSNKALPAPIEKTISKAKGQPREPQVYTLPPSRDELTKNQVSLTCLVKGFYPSDIAVEWESNGQPENNYKTTPPVLDSDGSFFLYSKLTVDKSRWQQGNVFSCSVMHEALHNHYTQKSLSLSP
notes: also called 7B11 VHH-Fc antibody (260-7-B11 fused to human IgG1 Fc)
Consider B3, for which the EC50 in assay [10] worked out at 1.58 nM; in assay [12], 0.642 nM. Besides, the IC50 in [11] worked out at 0.221 nM. Besides, in assay [13], the “EC50 (nM), blocking of T cell PD-1/PD-L1 signaling pathway (GS-C2 cells with Jurket-NFAT-PD1 cells, luciferase)” value (from here on “EC50 (nM), blocking”) was found to be 2.11 nM.

B4: 7B11_huGS_HM1 (Fc fusion)
chain: B3 chain with A14P, E44G, R45L, S68F, R76K, I84N, K87R, P88A, Q119L
notes: Humanized VHH-Fc antibody
For B4, the Kd in assay [14] was 0.0294 nM; in [15], 0.0252 nM.

B5: 7B11_huGS1 (Fc fusion)
chain: EVQLVESGGGLVQPGGSLRLSCAASGGTFLTYGMGWVRQAPGKGLEWVAAINWSGSMTNYADSVKGRFTISRDNAKNTVYLQMNSLRAEDTAVYYCAAKTGAVAYIQKNEYDYWGQGTLVTVSSGGGGSGGGGSDKTHTCPPCPAPEAAGAPSVFLFPPKPKDTLMISRTPEVTCVVVDVSHEDPEVKFNWYVDGVEVHNAKTKPREEQYNSTYRVVSVLTVLHQDWLNGKEYKCAVSNKALPAPIEKTISKAKGQPREPQVYTLPPSRDELTKNQVSLTCLVKGFYPSDIAVEWESNGQPENNYKTTPPVLDSDGSFFLYSKLTVDKSRWQQGNVFSCSVMHEALHNHYTQKSLSLSP
notes: Humanized VHH-Fc antibody
Regarding B5, the Kd amounted to 0.0815 nM in assay [14] and 0.0588 nM in [15].

B6: 7B11_huBSM1 (Fc fusion)
chain: B3 chain with E46V, S68F, R76K, I84R, K87T, P88S
notes: Humanized VHH-Fc antibody
B6: the Kd in [14] is 0.0372 nM; in assay [15], 0.0294 nM.

B7: 7B11_huBSM_HM1 (Fc fusion)
chain: B3 chain with E44G, R45L, E46V, S68F, R76K, I84R, K87T, P88S
notes: Humanized VHH-Fc antibody
Consider B7, for which the results for the Kd in [14] and in [15] were 0.0382 nM and 0.0347 nM, respectively.

B8: 7B11_huBSM_HM2 (Fc fusion)
chain: B3 chain with S68F, R76K, I84R, K87T, P88S, Q119L
notes: Humanized VHH-Fc antibody
Regarding B8, the Kd in assay [14] came to 0.0362 nM; in assay [15], 0.0307 nM.

B9: 7B11_huGS_HM4 (Fc fusion)
chain: B5 chain with V37F, W47F, L119Q
notes: Humanized VHH-Fc antibody
With B9, the EC50 in assay [10] was 2 nM; in assay [12], 0.729 nM. Besides, the IC50 in [11] amounted to 0.24 nM. Besides, the “EC50 (nM), blocking” value in assay [13] turned out to be 1.97 nM. In addition, the Kd in assay [14] is 0.035 nM; in assay [15], 0.0326 nM.

B10: 260-7-B11 nanobody (VHH)
VHH: EVQLVESGGGLVQAGGSLRLSCAASGGTFLTYGMGWFRQAPGKEREFVAAINWSGSMTNYADSVKGRSTISRDNARNTVYLQMISLKPEDTAVYYCAAKTGAVAYIQKNEYDYWGQGTQVTVSS
notes: Prokaryotically expressed VHH
In the case of B10, the response in [16] was half-maximal at 0.739 nM (EC50). Moreover, in assay [17], the “EC50 (nM), blocking” value is 15.3 nM. Moreover, the values for the IC50 in assay [18] and in assay [20] were 0.396 nM and 0.627 nM, respectively. Moreover, the Kd in assay [19] came out at 0.0243 nM.
